According to paper PMC7804450, “Structural insights into TSC complex assembly and GAP activity on Rheb” (Nature Communications, 2021):

B1: tuberous sclerosis complex 2 (TSC2), human, subunit of the purified TSC complex (natural protein)
chain: not shown
notes: TSC2 (tuberin), human; ORF sub-cloned into a modified pCAG vector; residues 127-936, 1015-1082, 1182-1245, 1494-1732 traced; Two copies (TSC2a, TSC2b) stand in the TSC complex (2:2:1); The sample for cryo-EM was cross-linked with glutaraldehyde (Grafix); also called TSC2a; TSC2b
B2: tuberous sclerosis complex 1 (TSC1), human, subunit of the purified TSC complex (natural protein, UniProt Q92574 1-1164, looked up)
chain: MAQQANVGELLAMLDSPMLGVRDDVTAVFKENLNSDRGPMLVNTLVDYYLETSSQPALHILTTLQEPHDKHLLDRINEYVGKAATRLSILSLLGHVIRLQPSWKHKLSQAPLLPSLLKCLKMDTDVVVLTTGVLVLITMLPMIPQSGKQHLLDFFDIFGRLSSWCLKKPGHVAEVYLVHLHASVYALFHRLYGMYPCNFVSFLRSHYSMKENLETFEEVVKPMMEHVRIHPELVTGSKDHELDPRRWKRLETHDVVIECAKISLDPTEASYEDGYSVSHQISARFPHRSADVTTSPYADTQNSYGCATSTPYSTSRLMLLNMPGQLPQTLSSPSTRLITEPPQATLWSPSMVCGMTTPPTSPGNVPPDLSHPYSKVFGTTAGGKGTPLGTPATSPPPAPLCHSDDYVHISLPQATVTPPRKEERMDSARPCLHRQHHLLNDRGSEEPPGSKGSVTLSDLPGFLGDLASEEDSIEKDKEEAAISRELSEITTAEAEPVVPRGGFDSPFYRDSLPGSQRKTHSAASSSQGASVNPEPLHSSLDKLGPDTPKQAFTPIDLPCGSADESPAGDRECQTSLETSIFTPSPCKIPPPTRVGFGSGQPPPYDHLFEVALPKTAHHFVIRKTEELLKKAKGNTEEDGVPSTSPMEVLDRLIQQGADAHSKELNKLPLPSKSVDWTHFGGSPPSDEIRTLRDQLLLLHNQLLYERFKRQQHALRNRRLLRKVIKAAALEEHNAAMKDQLKLQEKDIQMWKVSLQKEQARYNQLQEQRDTMVTKLHSQIRQLQHDREEFYNQSQELQTKLEDCRNMIAELRIELKKANNKVCHTELLLSQVSQKLSNSESVQQQMEFLNRQLLVLGEVNELYLEQLQNKHSDTTKEVEMMKAAYRKELEKNRSHVLQQTQRLDTSQKRILELESHLAKKDHLLLEQKKYLEDVKLQARGQLQAAESRYEAQKRITQVFELEILDLYGRLEKDGLLKKLEEEKAEAAEAAEERLDCCNDGCSDSMVGHNEEASGHNGETKTPRPSSARGSSGSRGGGGSSSSSSELSTPEKPPHQRAGPFSSRWETTMGEASASIPTTVGSLPSSKSFLGMKARELFRNKSESQCDEDGMTSSLSESLKTELGKDLGVEAKIPLNLDGPHPSPPTPDSVGQLHIMDYNETHHEHS
notes: TSC1 (hamartin), human; ORF sub-cloned into a modified pCAG vector; Two copies (TSC1a, TSC1b) stand in the TSC complex (2:2:1); The sample for cryo-EM was cross-linked with glutaraldehyde (Grafix); also called TSC1a; TSC1b

Assays:
Experiment in all cases: cryo-EM structure; human TSC complex (TSC1, TSC2, TBC1D7) co-expressed in Expi293F, purified, cross-linked by Grafix (glutaraldehyde); single particle reconstruction, 4.4 Å overall, core 3.6 Å, wings 3.9 and 4.1 Å
[1] = molecular target: the molecule itself
[2] = molecular target: B1; conditions: both partners purified
[3] = molecular target: B2; conditions: both partners purified

Binder: B1
stoichiometry N [1]: 2

Binder: B2
binding result [2]: binds

B3: Tre2-Bub2-Cdc16-1 domain family member 7 (TBC1D7), human, subunit of the purified TSC complex (natural protein, UniProt Q9P0N9 1-293, looked up)
chain: MTEDSQRNFRSVYYEKVGFRGVEEKKSLEILLKDDRLDTEKLCTFSQRFPLPSMYRALVWKVLLGILPPHHESHAKVMMYRKEQYLDVLHALKVVRFVSDATPQAEVYLRMYQLESGKLPRSPSFPLEPDDEVFLAIAKAMEEMVEDSVDCYWITRRFVNQLNTKYRDSLPQLPKAFEQYLNLEDGRLLTHLRMCSAAPKLPYDLWFKRCFAGCLPESSLQRVWDKVVSGSCKILVFVAVEILLTFKIKVMALNSAEKITKFLENIPQDSSDAIVSKAIDLWHKHCGTPVHSS
notes: TBC1D7, human; ORF sub-cloned into a modified pCAG vector; residues 21-287 traced; One copy stands in the TSC complex (2:2:1); The sample for cryo-EM was cross-linked with glutaraldehyde (Grafix)
binding result [3]: binds
